# What was measured:
# [1] = target: cytochrome P450 2C9, allelic variant clone 25 (Leu359) (human)
# [2] = target: cytochrome P450 2C9, allelic variant clone 65 (Ile359) (human)
# [3] = Mephenytoin 4'-hydroxylase assay, recombinant human CYP2C yeast microsomes (Table III); format: biochemical; details: for Mephenytoin 4'-Hydroxylase Activity S: recombinant yeast microsomes + P450 reductase, phospholipid, cytochrome b5 2:1, 0.4 mM substrate, HEPES pH 7.4, 37° C. 30 min, means ± SE; for R/S Ratio: with cytochrome b5
# Procedure: (§1) Purified or recombinant yeast microsomes (10-50 pmol) were preincubated with dilauroylphosphatidylcholine (15 μg per 50 pmol P450), P450 reductase (500 U per 50 mol P450), and human cytochrome b5 (2:1 molar ratio when added). The reconstituted mixture was preincubated for 5 min at 37° C., and then placed on ice. A final concentration of 0.4 mM radiolabelled S- or R-mephenytoin (20.7 mCi/mM and 20.9 mCi/mMol) was added to 50 mM HEPES buffer (pH 7.4) containing 0.1 mM EDTA and 1.5 mM MgCl2 for recombinant 2C proteins. The mixture was then incubated at 37° with shaking for 3 min, and the reaction started with the addition of 2mM NADPH and terminated after 30 min with an equal volume of methanol. […] Reaction volumes were generally 0.25 ml except when the volume of recombinant purified cytochrome or yeast microsomes was greater than 50 μl. In these cases, the volume was increased to 0.5 ml to limit the volume of glycerol from the purified preparation to <4% of the final volume.
# [4] = as above; format: biochemical; details: recombinant yeast microsomes + P450 reductase, phospholipid, cytochrome b5 2:1; 0.4 mM substrate, HEPES pH 7.4, 37° C. 30 min; means ± SE
# Procedure: as §1
# [5] = Mephenytoin 4'-hydroxylase assay, purified recombinant P450 2C in reconstituted system (Table IV); format: biochemical; details: for R/S Ratio / Mephenytoin 4'-Hydroxylase Activity S: purified P450, reconstituted system; for Mephenytoin 4'-Hydroxylase Activity S / Mephenytoin 4'-Hydroxylase Activity R: triplicate, means ± SE, blank not subtracted
# Procedure: Recombinant yeast microsomes were prepared from a 10-12 l culture, and recombinant P450s were purified by aminooctylsepharose chromatography as described by Iwasaki et al., J. Biol. Chem. 226:3380-3382 (1991). The Emulgen was then removed from protein by adsorption of the protein to a 4 g hydroxylapatite column (Hypatite C, Clarkson Chemical Company, Williamsport, Pa.) equilibrated with 10 mM potassium phosphate buffer (pH 7.2), 20% glycerol, 0.1 mM EDTA, and 0.1 mM DTT and washing the column with the same buffer until the absorbance at 280 nm returned to zero. The P450 was then eluted with […], and dialyzed overnight against 100 mM potassium phosphate buffer (pH 7.4, 20% glycerol and 0.1 mM EDTA. Absolute and CO difference spectra of purified P450s were determined in the same buffer but containing 0.2% Emulgen and 0.5% cholate.
# Mephenytoin 4'-hydroxylase activity was measured by a modification of the radiometric HPLC assay described by Shimada et al., J. Biol. Chem. 261:909-921 (1986), as described below. Purified or recombinant yeast microsomes (10-50 pmol) were preincubated with dilauroylphosphatidylcholine (15 μg per 50 pmol P450), P450 reductase (500 U per […] P450), and human cytochrome b5 (2:1 molar ratio when added). The reconstituted mixture was preincubated for 5 min at 37° C., and then placed on ice. A final concentration of 0.4 mM radiolabelled S- or R-mephenytoin (20.7 mCi/mM and 20.9 mCi/mMol) was added to 50 mM HEPES buffer (pH 7.4) containing 0.1 mM EDTA and 1.5 mM MgCl2 for recombinant 2C proteins. The mixture was then incubated at 37° with shaking for 3 min, and the reaction started with the addition of 2mM NADPH and terminated after 30 min with an equal volume of methanol. Cytochrome b5 was not included in all CYP2C18 reactions, since it had no effect or produced a slight inhibition on the activity of this CYP protein. Reaction volumes were generally 0.25 ml except when the volume of recombinant purified cytochrome or yeast microsomes was greater than 50 μl. In these cases, the volume was increased to 0.5 ml to limit the volume of glycerol from the purified preparation to <4% of the final volume.
# At the end of the incubation period, the reactions were terminated with an equal volume of methanol. The incubation mixture was centrifuged at 10,000 g for 10 min and an aliquot assayed directly using HPLC without extraction. Samples with particularly low activity were concentrated by lyophilization and redissolved in a small volume of methanol:water (1:1) before assay. The HPLC system consisted of a reverse phase C18 (10 μm) Versapak, 300 mm×4.1 mm column (Altech Associates, Deerfield, Ill.) using an isocratic solvent consisting of methanol:water (45:55) with a flow rate was kept of 1 ml/min for 25 min. Detection of radioactive peaks was accomplished using an on-line Flow-One radiochemical detector (Radiomatic Instruments Co., Tampa, Fla. Detection of the unlabeled 4'-hydroxymephenytoin authentic standard was performed using an on-line multiwavelength UV detector at both 211 and 230 nm.
# Recombinant P450s were purified from yeast microsomes and assays performe
# [6] = Tolbutamide hydroxylase assay, recombinant human CYP2C yeast microsomes (Table V); format: biochemical; details: for Tolbutamide Hydroxylase Activity (nmol/min/mg protein) / Tolbutamide Hydroxylase Activity (nmol/min/nmol P450): 1 mg yeast microsomal protein + purified P450 reductase (1,000 units); for Tolbutamide Hydroxylase Activity (nmol/min/mg protein): means ±SE
# Procedure: Tolbutamide hydroxylase activity was measured according to Knodell et al., J. Pharmacol. Exper. […] Yeast microsomes (1 mg protein) were preincubated with 300 pmol hamster P450 reductase in 0.2 ml of the incubation buffer (below) for 3 min at 37° C. The reaction was then placed on ice and incubated in 0.2 ml of 50 mM HEPES buffer (pH 7.4) containing 1.5 mM MgCl2, 0.1 mM EDTA in a final volume of 1 ml and 1 mM sodium tolbutamide. The reaction was initiated with 0.5 mM NADPH. Human liver microsomes (0.22 mg protein) were incubated without reductase. Incubations with reconstituted recombinant P450s contained 50 pmol purified P450 enzyme, 150 pmol P450 reductase, and 15 μg dilauroylphosphatidyl-choline, and were performed in 100 mM potassium phosphate buffer (pH 7.4). Reactions were terminated after 60 min at 37° C. by the addition of 50 μl of 4N HCl, followed by extraction with 3 ml of water-saturated ethyl acetate. The ethyl acetate extracts were dried under nitrogen at 40° C., the residue resolubilized in 200 μl methanol, and 4-hydroxytolbutamide then assayed using HPLC by injecting 50 μl of the solubilized extract onto a μBONDAPAK C18 column (4.6×300 mm) using 0.05% phosphoric acid, pH 2.6: acetonitrile (6:4, v/v) as the mobile phase with a flow rate of 1 ml/min. The column eluate was monitored at 230 nm and rates of product formation were determined from standard curves prepared by adding varying amounts of 4-hydroxytolbutamide to incubations conducted without NADPH. […] Samples were analyzed in triplicate.
# [7] = Tolbutamide hydroxylase assay, purified recombinant P450 2C (Table IV); format: biochemical; details: purified P450, reconstituted; blank (22 ± 5) subtracted; means ± SE
# Procedure: Tolbutamide hydroxylase activity was measured according to Knodell et al., J. Pharmacol. Exper. Ther. 241:1112-1119 (1987), with several modifications. Yeast microsomes (1 mg protein) were preincubated with 300 pmol hamster P450 reductase in 0.2 ml of the incubation buffer (below) for 3 min at 37° C. The reaction was then placed on ice and incubated in 0.2 ml of 50 mM HEPES buffer (pH 7.4) containing 1.5 mM MgCl2, 0.1 mM EDTA in a final volume of 1 ml and 1 mM sodium tolbutamide. The reaction was initiated with 0.5 mM NADPH. Human liver microsomes (0.22 mg protein) were incubated without reductase. Incubations with reconstituted recombinant P450s contained 50 pmol purified P450 enzyme, 150 pmol P450 reductase, and 15 μg dilauroylphosphatidyl-choline, and were performed in 100 mM potassium phosphate buffer (pH 7.4). Reactions were terminated after 60 min at 37° C. by the addition of 50 μl of 4N HCl, followed by extraction with 3 ml of water-saturated ethyl acetate. […] The column eluate was monitored at 230 nm and rates of product formation were determined from standard curves prepared by adding varying amounts of 4-hydroxytolbutamide to incubations conducted without NADPH. […] Samples were analyzed in triplicate.
Molecule,metabolism of tolbutamide [1],metabolism of tolbutamide [2],rate of S-hydroxylation higher than that of R-hydroxylation ([3]; recombinant yeast microsomes),stereospecificity of 4'-hydroxylation of mephenytoin ([3]; recombinant yeast microsomes (Table III)),Mephenytoin 4'-Hydroxylase Activity S [3],Mephenytoin 4'-Hydroxylase Activity S ([3]; listed as 2C19),R/S Ratio ([3]; recombinant yeast microsomes),Mephenytoin 4'-Hydroxylase Activity R [4],R/S Ratio [5],Mephenytoin 4'-Hydroxylase Activity S [5],"S-mephenytoin 4'-hydroxylation turnover number higher than that of recombinant 2C9, 2C18 or 2C8 ([5]; purified, reconstituted system)","stereospecificity of 4'-hydroxylation of mephenytoin ([5]; purified, reconstituted system (Table IV))",Mephenytoin 4'-Hydroxylase Activity R [5],S-mephenytoin 4'-hydroxylase turnover number higher than reported for P450MP purified from human liver ([5]; versus Srivastava et al. (1991)),S-mephenytoin 4'-hydroxylation turnover number higher than that of human liver microsomes ([5]; versus human liver microsomes),Tolbutamide Hydroxylase Activity (nmol/min/mg protein) [6],"tolbutamide hydroxylase activity compared with 2C9 ([6]; recombinant yeast microsomes, in words)",Tolbutamide Hydroxylase Activity [7],Tolbutamide Hydroxylase Activity (nmol/min/nmol P450) ([6]; adjusted for P450 content),"turnover number for tolbutamide higher than the Leu^359 allele ([6]; recombinant microsomes, adjusted for P450 content)"
exogenous P450 reductase (enzyme),> 10 fold,> 10 fold,–,–,–,–,–,–,–,–,–,–,–,–,–,–,–,–,–,–
"2C19 (11a): recombinant human cytochrome P450 2C19, clone 11a, amino acid sequence SEQ. ID. No. 1, expressed in yeast (protein) MDPFVVLVLCLSCLLLLSIWRQSSGRGKLPPGPTPLPVIGNILQIDIKDVSKSLTNLSKIYGPVFTLYFGLERMVVLHGYEVVKEALIDLGEEFSGRGHFPLAERANRGFGIVFSNGKRWKEIRRFSLMTLRNFGMGKRSIEDRVQEEARCLVEELRKTKASPCDPTFILGCAPCNVICSIIFQKRFDYKDQQFLNLMEKLNENIRIVSTPWIQICNNFPTIIDYFPGTHNKLLKNLAFMESDILEKVKEHQESMDINNPRDFIDCFLIKMEKEKQNQQSEFTIENLVITAADLLGAGTETTSTTLRYALLLLLKHPEVTAKVQEEIERVIGRNRSPCMQDRGHMPYTDAVVHEVQRYIDLIPTSLPHAVTCDVKFRNYLIPKGTTILTSLTSVLHDNKEFPNPEMFDPRHFLDEGGNFKKSNYFMPFSAGKRICVGEGLARMELFLFLTFILQNFNLKSLIDPKDLDTTPVVNGFASVPPFYQLCFIPV",–,–,at least 30 fold,stereospecific,4.6 ± 0.3 nmol/min/nmol P450,~ 5 nmol/min/nmol P450,0.03,0.014 ± 0.02 nmol/min/nmol P450,0.03,6.17 ± 0.24 nmol/min/nmol P450,50-100 times,stereospecific for the S-enantiomer,0.19 ± 0.04 nmol/min/nmol P450,~ 30 times,at least 10 times,18.4 ± 2.4 nmol/min/mg protein,comparable to that of 2C9,–,–,–
"2C9-Ile^359 (65): recombinant human P450 2C9 allelic variant, clone 65, expressed in yeast (protein, UniProt P11712 1-490, looked up) Cytochrome P450 2C9: MDSLVVLVLCLSCLLLLSLWRQSSGRGKLPPGPTPLPVIGNILQIGIKDISKSLTNLSKVYGPVFTLYFGLKPIVVLHGYEAVKEALIDLGEEFSGRGIFPLAERANRGFGIVFSNGKKWKEIRRFSLMTLRNFGMGKRSIEDRVQEEARCLVEELRKTKASPCDPTFILGCAPCNVICSIIFHKRFDYKDQQFLNLMEKLNENIKILSSPWIQICNNFSPIIDYFPGTHNKLLKNVAFMKSYILEKVKEHQESMDMNNPQDFIDCFLMKMEKEKHNQPSEFTIESLENTAVDLFGAGTETTSTTLRYALLLLLKHPEVTAKVQEEIERVIGRNRSPCMQDRSHMPYTDAVVHEVQRYIDLLPTSLPHAVTCDIKFRNYLIPKGTTILISLTSVLHDNKEFPNPEMFDPHHFLDEGGNFKKSKYFMPFSAGKRICVGEALAGMELFLFLTSILQNFNLKSLVDPKNLDTTPVVNGFASVPPFYQLCFIPV",–,–,–,–,0.043 ± 0.000 nmol/min/nmol P450,–,0.9,0.041 ± 0.005 nmol/min/nmol P450,0.77,0.081 ± 0.006 nmol/min/nmol P450,–,–,0.063 ± 0.003 nmol/min/nmol P450,–,–,–,–,122 + 29 pmol/min/nmol P450,3.4 ± 0.15 nmol/min/nmol P450,3 fold
2C8: recombinant human cytochrome P450 2C8 (clones 7b and 7c) expressed in yeast (protein) MEPFVVLVLCLSFMLLFSLWRQSCRRRKLPPGPTPLPIIGNMLQIDVKDICKSFTNFSKVYGPVFTVYFGMNPIVVFHGYEAVKEALIDNGEEFSGRGNSPISQRITKGLGIISSNGKRWKEIRRFSLTNLRNFGMGKRSIEDRVQEEAHCLVEELRKTKASPCDPTFILGCAPCNVICSVVFQKRFDYKDQNFLTLMKRFNENFRILNSPWIQVCNNFPLLIDCFPGTHNKVLKNVALTRSYIREKVKEHQASLDVNNPRDFMDCFLIKMEQEKDNQKSEFNIENLVGTVADLFVAGTETTSTTLRYGLLLLLKHPEVTAKVQEEIDHVIGRHRSPCMQDRSHMPYTDAVVHEIQRYSDLVPTGVPHAVTTDTKFRNYLIPKGTTIMALLTSVLHDDKEFPNPNIFDPGHFLDKNGNFKKSDYFMPFSAGKRICAGEGLARMELFLFLTTILQNFNLKSVDDLKNLNTTAVTKGIVSLPPSYQICFIPV,–,–,–,–,0.037 ± 0.001 nmol/min/nmol P450,–,0.4,0.016 ± 0.001 nmol/min/nmol P450,0.4,0.057 ± 0.009 nmol/min/nmol P450,–,–,0.023 ± 0.004 nmol/min/nmol P450,–,–,8.5 ± 0.2 nmol/min/mg protein,–,12 ± 4 pmol/min/nmol P450,0.11 ± 0.003 nmol/min/nmol P450,–

# — patent US5912120A, “Cloning, expression and diagnosis of human cytochrome P450 2C19: the principal determinant of s-mephenytoin metabolism” (The United States of America as represented by the …, priority 1994, dated 1999)
